The text below walks through data of publication PMC10038035 (Journal of Enzyme Inhibition and Medicinal Chemistry, 2023).

The data set deals with the molecule itself. Put plainly: PrP aggregate formation assay (PAFA, thioflavin T fluorescence).

B1: His-tagged mouse recombinant PrP (23-231) (domain or fragment)
chain: not shown
As for B1, the binding result was “binds”.
